The text below walks through data of patent US20230346885A1 (published 2023).

T1: ASCL2 peptide on HLA (human)
T1 peptide: LLAEHDAVRNAL

T2: ACTL8 peptide on HLA (human)
T2 peptide: SLYASGLLTGV

T3: ACTL8 peptide on HLA (human)
T3 peptide: RCLFQLETV

T4: ASCL2 peptide on HLA (human)
T4 peptide: LLAEHDAVRNA

T5: ACTL8 peptide on HLA (human)
T5 peptide: ALDESNTYQL

T6: CALHM3 peptide on HLA (human)
T6 peptide: ALLDGKCFV

T7: BRDT peptide on HLA (human)
T7 peptide: EMFPKFTEV

B1: TCR of SEQ ID NOs 297 and 298 (TCR, V domains shown)
Valpha: KQEVTQIPAALSVPEGENLVLNCSFTDSAIYNLQWFRQDPGKGLTSLLLIQSSQREQTSGRLNASLDKSSGRSTLYIAASQPGDSATYLCAVLTNDYKLSFGAGTTVTVRA
Vbeta: NAGVTQTPKFRVLKTGQSMTLLCAQDMNHEYMYWYRQDPGMGLRLIHYSVGEGTTAKGEVPDGYNVSRLKKQNFLLGLESAAPSQTSVYFCASSYSGFDSPLHFGNGTRLTVT
B2: TCR of SEQ ID NOs 293 and 294 (TCR, V domains shown)
Valpha: KQEVTQIPAALSVPEGENLVLNCSFTDSAIYNLQWFRQDPGKGLTSLLLIQSSQREQTSGRLNASLDKSSGRSTLYIAASQPGDSATYLCAVRQHTGRRALTFGSGTRLQVQP
Vbeta: NAGVTQTPKFRILKIGQSMTLQCTQDMNHNYMYWYRQDPGMGLKLIYYSVGAGITDKGEVPNGYNVSRSTTEDFPLRLELAAPSQTSVYFCASSYSPENTEAFFGQGTRLTVV
B3: TCR of SEQ ID NOs 295 and 296 (TCR, V domains shown)
Valpha: B2 Valpha
Vbeta: NAGVTQTPKFRILKIGQSMTLQCTQDMNHNYMYWYRQDPGMGLRLIHYSVGAGITDQGEVPNGYNVSRSTTEDFPLRLLSAAPSQTSVYFCASSYSPEADIQYFGAGTRLSVL
B4: TCR of SEQ ID NOs 283 and 284 (TCR, V domains shown)
Valpha: KQEVTQIPAALSVPEGENLVLNCSFTDSAIYNLQWFRQDPGKGLTSLLLIQSSQREQTSGRLNASLDKSSGRSTLYIAASQPGDSATYLCAVKKDAGNKLTFGGGTRVLVKP
Vbeta: NAGVTQTPKFRVLKTGQSMTLLCAQDMNHEYMYWYRQDPGMGLRLIYYSASEGTTDKGEVPNGYNVSRLNKREFSLRLESAAPSQTSVYFCASSDSRRGGLLLYNSPLHFGNGTRLTVT
B5: TCR of SEQ ID NOs 285 and 286 (TCR, V domains shown)
Valpha: KQEVTQIPAALSVPEGENLVLNCSFTDSAIYNLQWFRQDPGKGLTSLLLIQSSQREQTSGRLNASLDKSSGRSTLYIAASQPGDSATYLCAVRAAGNKLTFGGGTRVLVKP
Vbeta: B4 Vbeta
B6: TCR of SEQ ID NOs 281 and 282 (TCR, V domains shown)
Valpha: KQEVTQIPAALSVPEGENLVLNCSFTDSAIYNLQWFRQDPGKGLTSLLLIQSSQREQTSGRLNASLDKSSGRSTLYIAASQPGDSATYLCAVRGYNKLIFGAGTRLAVHP
Vbeta: NAGVTQTPKFRVLKTGQSMTLLCAQDMNHEYMYWYRQDPGMGLRLIHYSVGEGTTAKGEVPDGYNVSRLKKQNFLLGLESAAPSQTSVYFCASSFDVTEAFFGQGTRLTVV
B7: TCR of SEQ ID NOs 289 and 290 (TCR, V domains shown)
Valpha: B5 Valpha with R93D, A94S, A95S, N97S, K98R, G103E, R106Q, V107L, L108T, K110N
Vbeta: NAGVTQTPKFQVLKTGQSMTLQCAQDMNHEYMYWYRQDPGMGLRLIHYSVGAGITDQGEVPNGYNVSRSTTEDFPLRLLSAAPSQTSVYFCASRLLGGSGYTFGSGTRLTVV
B8: TCR of SEQ ID NOs 291 and 292 (TCR, V domains shown)
Valpha: KQEVTQIPAALSVPEGENLVLNCSFTDSAIYNLQWFRQDPGKGLTSLLLIQSSQREQTSGRLNASLDKSSGRSTLYIAASQPGDSATYLCAVDADKLIFGTGTRLQVFP
Vbeta: NAGVTQTPKFRILKIGQSMTLQCTQDMNHEYMYWYRQDPGMGLRLIHYSVGEGTTAKGEVPDGYNVSRLKKQNFLLGLESAAPSQTSVYFCASREVGRDEHFFGPGTRLTVL
B9: TCR of SEQ ID NOs 287 and 288 (TCR, V domains shown)
Valpha: KQEVTQIPAALSVPEGENLVLNCSFTDSAIYNLQWFRQDPGKGLTSLLLIQSSQREQTSGRLNASLDKSSGRSTLYIAASQPGDSATYLCAVNYYNQGGKLIFGQGTELSVKP
Vbeta: NAGVTQTPKFQVLKTGQSMTLQCAQDMNHNSMYWYRQDPGMGLRLIYYSASEGTTDKGEVPNGYNVSRLNKREFSLRLESAAPSQTSVYFCASTPTYWDSYEQYFGPGTRLTVT
B10: TCR of SEQ ID NOs 309 and 310 (TCR, V domains shown)
Valpha: B5 Valpha with A94P, N97Q, K98N, L99F, T100V, G103P, V107L, L108S, K110L
Vbeta: NAGVTQTPKFQVLKTGQSMTLQCAQDMNHNSMYWYRQDPGMGLRLIYYSASEGTTDKGEVPNGYNVSRLNKREFSLRLESAAPSQTSVYFCASSEALWGGNTEAFFGQGTRLPVV
B11: TCR of SEQ ID NOs 307 and 308 (TCR, V domains shown)
Valpha: B1 Valpha with L93T, T94D, N95S, D96W, Y97G, S100Q, T106Q, T108V, R110T, A111P
Vbeta: NAGVTQTPKFQVLKTGQSMTLQCAQDMNHNSMYWYRQDPGMGLRLIYYSVGAGITDQGEVPNGYNVSRSTTEDFPLRLLSAAPSQTSVYFCASSRGPINYGYTFGSGTRLTVV
B12: TCR of SEQ ID NOs 305 and 306 (TCR, V domains shown)
Valpha: KQEVTQIPAALSVPEGENLVLNCSFTDSAIYNLQWFRQDPGKGLTSLLLIQSSQREQTSGRLNASLDKSSGRSTLYIAASQPGDSATYLCAVRSSTDSWGKFQFGAGTQVVVTP
Vbeta: NAGVTQTPKFQVLKTGQSMTLQCAQDMNHEYMSWYRQDPGMGLRLIHYSVGAGITDQGEVPNGYNVSRSTTEDFPLRLLSAAPSQTSVYFCASSYSAGLTGELFFGEGSRLTVL
B13: TCR of SEQ ID NOs 279 and 280 (TCR, V domains shown)
Valpha: B8 Valpha with V92T, D93G, A94F, D95Q, I98V, Q106L, F108S
Vbeta: NAGVTQTPKFQVLKTGQSMTLQCAQDMNHNSMYWYRQDPGMGLRLIYYSASEGTTDKGEVPNGYNVSRLNKREFSLRLESAAPSQTSVYFCASTLGRLLTEAFFGQGTRLTVV
B14: TCR of SEQ ID NOs 275 and 276 (TCR, V domains shown)
Valpha: B6 Valpha
Vbeta: NAGVTQTPKFRILKIGQSMTLQCTQDMNHNYMYWYRQDPGMGLKLIYYSVGAGITDKGEVPNGYNVSRSTTEDFPLRLLSAAPSQTSVYFCASSYSPIVGAFFGQGTRLTVV
B15: TCR of SEQ ID NOs 277 and 278 (TCR, V domains shown)
Valpha: B6 Valpha
Vbeta: NAGVTQTPKFRILKIGQSMTLQCAQDMNHNYMYWYRQDPGMGLKLIYYSVGAGITDKGEVPNGYNVSRSTTEDFPLRLELAAPSQTSVYFCASTRDTYYGYTFGSGTRLTVV
B16: TCR of SEQ ID NOs 327 and 328 (TCR, V domains shown)
Valpha: GNSVTQMEGPVTLSEEAFLTINCTYTATGYPSLFWYVQYPGEGLQLLLKATKADDKGSNKGFEATYRKETTSFHLEKGSVQVSDSAVYFCAPHTDKLIFGTGTRLQVFP
Vbeta: DSGVTQTPKHLITATGQRVTLRCSPRSGDLSVYWYQQSLDQGLQFLIQYYNGEERAKGNILERFSAQQFPDLHSELNLSSLELGDSALYFCASSGGTGDGYTFGSGTRLTVV
B17: TCR of SEQ ID NOs 325 and 326 (TCR, V domains shown)
Valpha: QKEVEQNSGPLSVPEGAIASLNCTYSDRGSQSFFWYRQYSGKSPELIMFIYSNGDKEDGRFTAQLNKASQYVSLLIRDSQPSDSATYLCAVRTPSGSARQLTFGSGTQLTVLP
Vbeta: DAGVTQSPTHLIKTRGQHVTLRCSPKSGHDTVSWYQQALGQGPQFIFQYYGEEERQRGNFPDRFSGHQFPNYSSELNVNALLLGDSALYLCASSLGAGGGHSGNTIYFGEGSWLTVV
B18: TCR of SEQ ID NOs 323 and 324 (TCR, V domains shown)
Valpha: KQEVTQIPAALSVPEGENLVLNCSFTDSAIYNFQWFRQDPGKGLTSLLLIQSSQREQTSGRLNASLDKSSGRSTLYIAASQPGDSATYLCAAHPATGANSKLTFGKGITLSVRP
Vbeta: NAGVTQTPKFQVLKTGQGMTLQCAQDMNHNSMYWYRQDPGMGLRLIYYSASEGTTDKGEVPNGYNVSRLNKREFSLRLESAAPSQTSVYFCASSEASGSNSPLHFGNGTRLTVT
B19: TCR of SEQ ID NOs 313 and 314 (TCR, V domains shown)
Valpha: KQEVTQIPAALSVPEGENLVLNCSFTDSAIYNLQWFRQDPGKGLTSLLLIQSSQREQTSGRLNASLDKSSGRSTLYIAASQPGDSATYLCAVSNYGGSQGNLIFGKGTKLSVKP
Vbeta: B1 Vbeta with S94T, Y95H, S96W, F98R
B20: TCR of SEQ ID NOs 315 and 316 (TCR, V domains shown)
Valpha: KQEVTQIPAALSVPEGENLVLNCSFTDSAIYNLQWFRQDPGKGLTSLLLIQSSQREQTSGRLNASLDKSSGRSTLYIAASQPGDSATYLCAVSPRSNDYKLSFGAGTTVTVRA
Vbeta: NAGVTQTPKFRILKIGQSMTLQCTQDMNHNYMYWYRQDPGMGLKLIYYSVGAGTTDKGEVPNGYNVSRLNKREFSLRLESAAPSQTSVYFCASSATRRGDYGYTFGSGTRLTVV
B21: TCR of SEQ ID NOs 311 and 312 (TCR, V domains shown)
Valpha: B9 Valpha with N93T, Y94G, Y95G, N96T, Q97S, G98Y, I102T, E108I, S110T, K112H
Vbeta: NAGVTQTPKFRILKIGQSMTLQCTQDMNHNYMYWYRQDPGMGLKLIYYSVGAGITDKGEVPNGYNVSRSTTEDFPLRLELAAPSQTSVYFCASSYWAGVLTEAFFGQGTRLTVV

Positions count from the first letter of the chain named.

In the first experiment the target is T1, ASCL2 peptide on HLA. The experiment is described as follows: binding, other.
Consider B1, for which the binding result is “recognises”.

Consider B2, for which the binding result was “recognises”.

As to B3, the binding result is reported as “recognises”.

The target in a further experiment is T2, ACTL8 peptide on HLA. The experiment is described as follows: binding, other.
B4: the binding result is “recognises”.

On to B5, for which the binding result is listed as “recognises”.

With B6, the binding result is recorded as “recognises”.

The target in the next experiment is T3, ACTL8 peptide on HLA. The experiment is described as follows: binding, other.
As to B7, the binding result is listed as “recognises”.

On to B8, for which the binding result is “recognises”.

For the molecule B9, the binding result is on record as “recognises”.

The next experiment has as its target T4, ASCL2 peptide on HLA. Put plainly: binding, other.
As for B10, the binding result is listed as “recognises”.

As for B11, the binding result is listed as “recognises”.

Turning to B12, the binding result is “recognises”.

The target in the next experiment is T5, ACTL8 peptide on HLA. The experiment is described as follows: binding, other.
With B13, the binding result is “recognises”.

Consider B14, for which the binding result is “recognises”.

B15: the binding result was “recognises”.

For another experiment, the target named is T6, CALHM3 peptide on HLA. The experiment is described as follows: binding, other.
As for B16, the binding result is given as “recognises”.

Regarding B17, the binding result was “recognises”.

As for B18, the binding result was “recognises”.

The next experiment concerns the target T7, BRDT peptide on HLA. The experiment is described as follows: binding, other.
As to B19, the binding result is on record as “recognises”.

B20: the binding result is recorded as “recognises”.

In the case of B21, the binding result is given as “recognises”.
